These results are taken from paper PMC4150764, “Structural and functional basis of transcriptional regulation by TetR family protein CprB from S. coelicolor A3(2)” (Nucleic Acids Research, 2014).

Residue numbers refer to the chain shown, from its start.

For series [1], the target named is T1, CprB (Streptomyces coelicolor A3(2), UniProt Q7AKF2 1-215).
T1 sequence: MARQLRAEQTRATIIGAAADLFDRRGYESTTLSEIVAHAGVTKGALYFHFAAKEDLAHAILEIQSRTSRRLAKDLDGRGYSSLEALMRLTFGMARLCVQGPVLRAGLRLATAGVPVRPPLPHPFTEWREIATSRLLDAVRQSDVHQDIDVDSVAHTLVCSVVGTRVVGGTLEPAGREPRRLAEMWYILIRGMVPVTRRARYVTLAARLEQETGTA
As to the kind of experiment: EMSA; EMSA: 10 mM Tris-HCl pH 7.8, 50 mM KCl, 1 mM EDTA, 1 mM DTT, 5% glycerol, hemoglobin, poly(dI-dC), 20 C, ~1 nM DNA; ITC: 50 mM phosphate pH 7, 150 mM NaCl, 25 C. The settings on record: protein: recombinant, chain copies: 4, blunt. (In EMSA bound probe runs differently from free probe, usually more slowly.)

Series [2] concerns the target T1, CprB. As to the kind of experiment: EMSA; about five-fold weaker than own upstream sequence; EMSA: 10 mM Tris-HCl pH 7.8, 50 mM KCl, 1 mM EDTA, 1 mM DTT, 5% glycerol, hemoglobin, poly(dI-dC), 20 C, ~1 nM DNA; ITC: 50 mM phosphate pH 7, 150 mM NaCl, 25 C. The settings on record: protein: recombinant; chain copies: 4; label: 5'-32P; blunt, self-complementary.
Series [3] addresses T1, CprB. In words: ITC; two-site model, Kd1, n = 0.26, 25 C; EMSA: 10 mM Tris-HCl pH 7.8, 50 mM KCl, 1 mM EDTA, 1 mM DTT, 5% glycerol, hemoglobin, poly(dI-dC), 20 C, ~1 nM DNA; ITC: 50 mM phosphate pH 7, 150 mM NaCl, 25 C. The settings on record: protein: recombinant; chain copies: 4; label: 5'-32P (EMSA); none (ITC); blunt.
Another series addresses T2, CprB S33A (Streptomyces coelicolor A3(2), UniProt Q7AKF2 1-215, S33A).
T2 sequence: T1 sequence with S33A
In words: EMSA; negligible effect; EMSA: 10 mM Tris-HCl pH 7.8, 50 mM KCl, 1 mM EDTA, 1 mM DTT, 5% glycerol, hemoglobin, poly(dI-dC), 20 C, ~1 nM DNA; ITC: 50 mM phosphate pH 7, 150 mM NaCl, 25 C. The settings on record: protein: recombinant; chain copies: 2; label: 5'-32P (EMSA); none (ITC); blunt.

The target in the next series is T3, CprB K43A (Streptomyces coelicolor A3(2), UniProt Q7AKF2 1-215, K43A).
T3 sequence: T1 sequence with K43A
The description is as above. The settings on record: protein: recombinant; chain copies: 2; label: 5'-32P (EMSA); none (ITC); blunt.

Series [4] has as its target T1, CprB. In words: EMSA; range given for scbR, kasOA, kasOB together; EMSA: 10 mM Tris-HCl pH 7.8, 50 mM KCl, 1 mM EDTA, 1 mM DTT, 5% glycerol, hemoglobin, poly(dI-dC), 20 C, ~1 nM DNA; ITC: 50 mM phosphate pH 7, 150 mM NaCl, 25 C. The settings on record: protein: recombinant; chain copies: 4; label: 5'-32P; blunt.
The target of series [5] is T1, CprB. As to the kind of experiment: ITC; n = 0.52 CS per CprB dimer, 25 C; EMSA: 10 mM Tris-HCl pH 7.8, 50 mM KCl, 1 mM EDTA, 1 mM DTT, 5% glycerol, hemoglobin, poly(dI-dC), 20 C, ~1 nM DNA; ITC: 50 mM phosphate pH 7, 150 mM NaCl, 25 C. The settings on record: protein: recombinant; chain copies: 4; label: 5'-32P (EMSA); none (ITC, crystal); blunt. A general note: ITC needs no label: the signal is the heat of the interaction.

Series [6] addresses T1, CprB. In words: EMSA; similar trend to OPB; EMSA: 10 mM Tris-HCl pH 7.8, 50 mM KCl, 1 mM EDTA, 1 mM DTT, 5% glycerol, hemoglobin, poly(dI-dC), 20 C, ~1 nM DNA; ITC: 50 mM phosphate pH 7, 150 mM NaCl, 25 C. The settings on record: protein: recombinant; chain copies: 4; label: 5'-32P; blunt.
Series [7] deals with the molecule itself. As to the kind of experiment: crystal structure; CprB (6 mg/ml) co-crystallised with annealed 22-mer CS DNA, 1:1.2 (dimer of CprB:CS), hanging drop, 22°C, 0.2 M KCl, 0.02 M MgCl2, 0.05 M Tris-HCl pH 7.5, 10% PEG 4000; 3.25 Å.

B1: TetR(OS) 15-mer (dsDNA)
DNA 1: TCTATCATTGATAGG
DNA 2: CCTATCAATGATAGA
For B1, the binding result with CprB [1] (label: 5'-32P) is recorded as “no binding”.

B2: QacR(OS) 28-mer (dsDNA)
DNA 1: CTTATAGACCGATCGATCGGTCTATAAG
DNA 2: CTTATAGACCGATCGATCGGTCTATAAG
Regarding B2, the Kd (usually a measure of binding affinity in units of concentration) with CprB [2] was about 1500 nM.

B3: OPB 27-mer (-47 to -21 of cprB-ATG) (dsDNA)
DNA 1: AGGCAGGCGGCACGGTCTGTTGAGTTC
DNA 2: GAACTCAACAGACCGTGCCGCCTGCCT
With B3, the Kd in the series with CprB [3] is 330 nM; in the series with CprB [1] (label: 5'-32P (EMSA), none (ITC)), about 274 nM. Moreover, the binding result with CprB S33A and with CprB K43A was “binds” each time.

B4: kasOA (dsDNA)
DNA 1: ACAAACCGGTGTGCTGGTTTGTAAAGTCGTGG
DNA 2: CCACGACTTTACAAACCAGCACACCGGTTTGT
On to B4, for which the Kd with CprB [4] was about 1060 nM.

B5: cprB1 59-mer (-58 to 0 of cprB-ATG) (dsDNA)
DNA 1: GCCGGGGGTAAAGGCAGGCGGCACGGTCTGTTGAGTTCCAGCCCGGGAGAATCCAGCCG
DNA 2: CGGCTGGATTCTCCCGGGCTGGAACTCAACAGACCGTGCCGCCTGCCTTTACCCCCGGC
Take B5: in the series with CprB [1] (label: 5'-32P), the equilibrium dissociation constant (Kd) was about 400 nM.

B6: CS 22-mer (dsDNA)
DNA 1: ACATACGGGACGCCCCGTTTAT
DNA 2: ATAAACGGGGCGTCCCGTATGT
For B6, the Kd with CprB [1] (label: 5'-32P (EMSA), none (ITC, crystal)) was about 374 nM; in the series with CprB [5], 200 nM.

B7: cprA upstream 25-mer (-44 to -20 of cprA-ATG) (dsDNA)
DNA 1: AACAGGCACACGGTCTGTTGGTTCT
DNA 2: AGAACCAACAGACCGTGTGCCTGTT
Turning to B7, the binding result in the series with CprB [6] is listed as “binds”.

B8: CprB (coelicolor pigment regulator protein B) from S. coelicolor A3(2) (natural protein, UniProt O66122 1-215, looked up)
chain: T1 sequence
modifications: intermonomer disulfide linkage between cysteine residues at position 159
notes: CprB, TetR family gamma-butyrolactone receptor, Streptomyces coelicolor A3(2); the cprB gene encodes a 215 amino acid protein, expressed from pET26b(+); Crystallised with the 22-mer consensus DNA (CS); two homodimers in each asymmetric unit; No tag is mentioned; purification was by cation exchange; also called native CprB; source: E. coli BL21(DE3)pLysS, purified (SP Sepharose)
B8: the stoichiometry N (in general, the number of molecules, sites or subunits per partner or assembly) in series [7] came to 2.

B9: kasOB (dsDNA)
DNA 1: CAAAACAGACTTGTTAGCTGTTT
DNA 2: AAACAGCTAACAAGTCTGTTTTG
In the case of B9, the Kd in the series with CprB [4] is about 1060 nM.

B10: scbR (dsDNA)
DNA 1: GGAACCGGCAATGCGGTTTGTTCGATC
DNA 2: GATCGAACAAACCGCATTGCCGGTTCC
As for B10, the Kd in the series with CprB [4] was about 1060 nM.
